Reference: patent publication US20260374828 (published 2026)
Where no end group is shown, it is not given here. [ ]: non-standard residue; d: D form.

B1: Peptide 1-13 (peptide)
chain: Ac-DELEPLTGFRR[dR][dR]-NH2
SMILES: CC(=O)N[C@@H](CC(=O)O)C(=O)N[C@@H](CCC(=O)O)C(=O)N[C@@H](CC(C)C)C(=O)N[C@@H](CCC(=O)O)C(=O)N1CCC[C@H]1C(=O)N[C@@H](CC(C)C)C(=O)N[C@H](C(=O)NCC(=O)N[C@@H](Cc1ccccc1)C(=O)N[C@@H](CCCNC(=N)N)C(=O)N[C@@H](CCCNC(=N)N)C(=O)N[C@H](CCCNC(=N)N)C(=O)N[C@H](CCCNC(=N)N)C(N)=O)[C@@H](C)O
B2: Peptide 1-12 (peptide)
chain: Ac-DELEPLTGF[dR][dR]RR-NH2
SMILES: CC(=O)N[C@@H](CC(=O)O)C(=O)N[C@@H](CCC(=O)O)C(=O)N[C@@H](CC(C)C)C(=O)N[C@@H](CCC(=O)O)C(=O)N1CCC[C@H]1C(=O)N[C@@H](CC(C)C)C(=O)N[C@H](C(=O)NCC(=O)N[C@@H](Cc1ccccc1)C(=O)N[C@H](CCCNC(=N)N)C(=O)N[C@H](CCCNC(=N)N)C(=O)N[C@@H](CCCNC(=N)N)C(=O)N[C@@H](CCCNC(=N)N)C(N)=O)[C@@H](C)O

Target: Keap1 Kelch domain (UniProt Q14145)
Assay: other TR-FRET

Sequence of Keap1 Kelch domain (Q14145 whole entry, the tested form may be a part): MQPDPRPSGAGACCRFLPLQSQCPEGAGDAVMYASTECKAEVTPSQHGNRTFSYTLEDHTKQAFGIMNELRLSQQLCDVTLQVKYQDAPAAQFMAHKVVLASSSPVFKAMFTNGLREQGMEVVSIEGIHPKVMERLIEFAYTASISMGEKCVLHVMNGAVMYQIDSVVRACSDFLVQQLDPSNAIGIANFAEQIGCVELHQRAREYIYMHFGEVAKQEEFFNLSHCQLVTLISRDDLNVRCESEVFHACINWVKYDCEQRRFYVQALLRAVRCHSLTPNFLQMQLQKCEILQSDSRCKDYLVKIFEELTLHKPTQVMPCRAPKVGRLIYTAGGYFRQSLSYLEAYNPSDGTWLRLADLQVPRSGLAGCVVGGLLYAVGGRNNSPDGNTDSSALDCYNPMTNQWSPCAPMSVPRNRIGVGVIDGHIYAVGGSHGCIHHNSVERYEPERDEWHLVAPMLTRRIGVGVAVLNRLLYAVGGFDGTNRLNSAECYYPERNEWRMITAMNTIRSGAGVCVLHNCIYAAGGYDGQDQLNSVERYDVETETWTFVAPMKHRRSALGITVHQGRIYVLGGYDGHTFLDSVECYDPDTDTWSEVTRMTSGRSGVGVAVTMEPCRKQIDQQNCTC

| Binder | IC50 [nM] |
| --- | --- |
| RRDELEPLTGFRR (also: polynorbornene brush polymer conjugate, multivalent) [PLP 1-3] | 0.12 |
| B1 | 8.8 |
| B2 | 13.3 |
| DELEPLTGF[dR][dR]RR (also: polynorbornene brush polymer conjugate, multivalent) [PLP 1-12] | 0.17 |
